Where no end group is shown, it is not given here. [ ]: non-standard residue; d: D form. pT = C[C@@H](OP(=O)(O)O)[C@H](N)C(=O)O
B1: peptide tau 181-210 (peptide)
peptide: TPPSSGEPPKSGDRSGYSSPGSPGTPGSRS
notes: Synthetic peptide (EZBiolabs)
B2: peptide tau 210-220/pT212/pT217 (peptide)
peptide: SR[pT]PSLP[pT]PPT
notes: Synthetic peptide (EZBiolabs)
B3: peptide tau 171-200 (peptide)
peptide: IPAKTPPAPKTPPSSGEPPKSGDRSGYSSP
notes: Synthetic peptide (EZBiolabs)
B4: monoclonal antibody DC2E2 (antibody, V domains shown)
VH: EVQLQQSGAELVRPGALVKLSCKASGFNIKDYYMHWVRQRPDQGLEWIGWLDPENDHTIYDPRFQDRANLTADTSSNTAYLQLSSLTSEDTAVYYCSYYKYDDYWGQGTTLTVS
VL: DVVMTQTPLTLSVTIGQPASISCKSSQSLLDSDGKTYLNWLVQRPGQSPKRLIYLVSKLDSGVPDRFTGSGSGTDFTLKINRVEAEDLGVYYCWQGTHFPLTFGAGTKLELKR
notes: also called DC2E2 mAb; hybridoma ATCC PTA-124991
B5: monoclonal antibody DC2E7 (antibody, V domains shown)
VH: DVQLVESGGGLVQPGGSRKLSCAASGFTFSSFGMHWVRQAPEKGLEWVAYISGDSNTIYYADTVKGRFTISRDNPKNTLFLQMTSLRSEDTAIYYCARTLAYWGQGTLVTVS
VL: DIQMTQSSSSFSVSLGDRVTITCKASEDIYNRLAWYQQTPGNAPSLLISGASGLETGVPSRFSGSGSGRDYTLSITSLQTEDVATYYCLQYWSIPWTFGGGTKLEIKR
notes: also called hybridoma ATCC PTA-124992
B6: peptide tau 161-190 (peptide)
peptide: GQKGQANATRIPAKTPPAPKTPPSSGEPPK
notes: Synthetic peptide (EZBiolabs)
B7: peptide tau 210-219/pT212/pT217 (peptide)
peptide: SR[pT]PSLP[pT]PP
notes: Synthetic peptide (EZBiolabs)
B8: peptide tau 210-218/pT212/pT217 (peptide)
peptide: SR[pT]PSLP[pT]P
notes: Synthetic peptide (EZBiolabs)
B9: peptide tau 141-170 (peptide)
peptide: KAKGADGKTKIATPRGAAPPGQKGQANATR
notes: Synthetic peptide (EZBiolabs)

How the values were obtained:
[1] = biological target: B4; experiment: competition ELISA, coated tau 1-242, peptide in solution
[2] = biological target: B5; experiment: competition ELISA, peptide in solution with DC2E7, PHF-tau coated plate
tau 1-242 = biological target: T1, tau 1-242 (human, UniProt P10636 1-559); experiment: ELISA screen of hybridoma supernatants on coated tau 1-242
T1 construct: Deletion mutant numbered on tau 2N4R

tau 221-441 = biological target: T2, tau 221-441 (human, UniProt P10636 538-758); experiment: direct ELISA, coated recombinant tau (5 ug/ml), hybridoma supernatant
T2 construct: Unphosphorylated form used in the DC2E2 ELISA

tau 2N4R(A134-168) = biological target: T3, tau 2N4R(A134-168) (human, UniProt P10636 1-758); experiment: as above
T3 construct: The printed 'A' is read as the delta sign (deletion of 134-168); also called tau 2N4R with residues 134-168 deleted

tau 1-136 = tau 1-136 (human, UniProt P10636 1-387); experiment: as above
[3] = biological target: in vitro phosphorylated tau151-391 (human, UniProt P10636 468-708, in vitro phosphorylated with rat brain kinase extract; sites not determined); experiment: immunoblot
[4] = biological target: T4, recombinant human full-length tau 2N4R (human, UniProt P10636 1-758); experiment: immunoblot
T4 construct: Expressed in E. coli, unphosphorylated; also called tau441; physiological tau (2N4R)

[5] = biological target: T5, in vitro phosphorylated tau 2N4R (human, UniProt P10636 1-758, in vitro phosphorylated with rat brain kinase extract; sites not determined); experiment: immunoblot
T5 construct: also called phosphorylated 2N4R; 2N4R in vitro phosphorylated

tau 31-441 = tau 31-441 (human, UniProt P10636 31-758); experiment: direct ELISA, coated recombinant tau, hybridoma supernatant
[6] = biological target: recombinant human tau isoform 2N3R (human, UniProt P10636-5 1-410); experiment: as above
[7] = biological target: recombinant human tau isoform 1N4R (human, UniProt P10636-7 1-412); experiment: as above
[8] = biological target: recombinant human tau isoform 0N3R (human, UniProt P10636-2 1-352); experiment: as above
tau 99-441 = tau 99-441 (human, UniProt P10636 99-758); experiment: as above
tau 1-226 = tau 1-226 (human, UniProt P10636 1-543); experiment: as above
[9] = biological target: recombinant human tau isoform 0N4R (human, UniProt P10636-6 1-383); experiment: as above
tau 127-441 = tau 127-441 (human, UniProt P10636 378-758); experiment: as above
[10] = biological target: recombinant human tau isoform 1N3R (human, UniProt P10636-4 1-381); experiment: as above
tau151-391 = tau151-391 (human, UniProt P10636 468-708); experiment: as above
[11] = biological target: phosphorylated tau 2N4R point mutant Thr217Ala (human, UniProt P10636 1-758, in vitro phosphorylated with rat brain kinase extract; sites not determined); experiment: immunoblot of in vitro phosphorylated point mutants
[12] = biological target: phosphorylated tau 221-441 (human, UniProt P10636 538-758, in vitro phosphorylated with rat brain kinase extract; sites not determined); experiment: immunoblot of in vitro phosphorylated deletion mutants
[13] = biological target: B4; experiment: competition ELISA, coated tau 1-242, peptide in solution with purified DC2E2

Sequence of recombinant human tau isoform 0N3R (P10636 other isoform, or with tags, fused parts or gaps limits assumed): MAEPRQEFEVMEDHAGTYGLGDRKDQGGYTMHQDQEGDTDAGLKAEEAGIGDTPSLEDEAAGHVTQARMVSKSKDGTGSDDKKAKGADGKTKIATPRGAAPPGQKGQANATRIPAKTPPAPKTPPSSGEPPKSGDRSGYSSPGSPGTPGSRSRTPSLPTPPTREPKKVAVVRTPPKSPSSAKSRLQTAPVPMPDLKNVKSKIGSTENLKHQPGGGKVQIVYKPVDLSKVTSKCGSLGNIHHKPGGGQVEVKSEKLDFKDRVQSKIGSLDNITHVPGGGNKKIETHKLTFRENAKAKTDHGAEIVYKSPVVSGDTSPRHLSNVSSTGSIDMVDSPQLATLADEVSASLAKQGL
Sequence of tau 99-441 (P10636 other isoform, or with tags, fused parts or gaps): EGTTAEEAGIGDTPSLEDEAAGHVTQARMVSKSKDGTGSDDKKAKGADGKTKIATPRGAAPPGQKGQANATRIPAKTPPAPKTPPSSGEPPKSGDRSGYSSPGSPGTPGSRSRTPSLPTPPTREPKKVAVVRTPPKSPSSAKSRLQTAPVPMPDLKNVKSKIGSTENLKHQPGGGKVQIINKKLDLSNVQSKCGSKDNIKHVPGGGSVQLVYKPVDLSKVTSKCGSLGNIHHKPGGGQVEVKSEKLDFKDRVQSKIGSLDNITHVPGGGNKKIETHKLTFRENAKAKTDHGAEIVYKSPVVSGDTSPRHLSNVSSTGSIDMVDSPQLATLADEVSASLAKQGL
Sequence of tau 1-136 (P10636 other isoform, or with tags, fused parts or gaps): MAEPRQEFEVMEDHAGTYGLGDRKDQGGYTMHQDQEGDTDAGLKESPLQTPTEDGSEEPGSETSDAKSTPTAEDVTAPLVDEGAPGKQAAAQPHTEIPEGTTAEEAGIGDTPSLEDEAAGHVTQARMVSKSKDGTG
Sequence of recombinant human tau isoform 2N3R (P10636 other isoform, or with tags, fused parts or gaps limits assumed): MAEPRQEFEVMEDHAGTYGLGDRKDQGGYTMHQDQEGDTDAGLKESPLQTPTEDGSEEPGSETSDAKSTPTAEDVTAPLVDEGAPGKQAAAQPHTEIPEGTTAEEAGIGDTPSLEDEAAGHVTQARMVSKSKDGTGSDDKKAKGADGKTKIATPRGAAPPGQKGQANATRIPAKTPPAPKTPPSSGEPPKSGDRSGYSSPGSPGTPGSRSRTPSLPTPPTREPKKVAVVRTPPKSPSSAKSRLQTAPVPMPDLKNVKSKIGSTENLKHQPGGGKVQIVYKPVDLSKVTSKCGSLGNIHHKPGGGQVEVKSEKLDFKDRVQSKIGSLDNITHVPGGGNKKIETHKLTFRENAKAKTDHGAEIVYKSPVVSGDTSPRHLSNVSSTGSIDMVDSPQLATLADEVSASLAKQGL
T1 sequence (P10636 other isoform, or with tags, fused parts or gaps): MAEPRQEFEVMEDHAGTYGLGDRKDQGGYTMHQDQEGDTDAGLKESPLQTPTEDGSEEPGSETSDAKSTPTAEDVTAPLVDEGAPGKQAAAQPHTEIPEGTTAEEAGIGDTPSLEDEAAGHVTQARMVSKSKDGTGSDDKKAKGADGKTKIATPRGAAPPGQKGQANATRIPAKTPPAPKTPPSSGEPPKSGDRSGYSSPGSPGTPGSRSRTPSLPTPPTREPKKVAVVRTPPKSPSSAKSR
Sequence of phosphorylated tau 221-441 (P10636 538-758 I625L): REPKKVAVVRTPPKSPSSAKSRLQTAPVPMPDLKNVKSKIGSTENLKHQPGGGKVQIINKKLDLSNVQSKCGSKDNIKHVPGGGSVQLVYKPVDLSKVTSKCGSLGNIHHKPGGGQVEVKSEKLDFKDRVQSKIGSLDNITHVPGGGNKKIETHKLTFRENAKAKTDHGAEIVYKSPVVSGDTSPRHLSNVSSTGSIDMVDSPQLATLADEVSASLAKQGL
T2 sequence (P10636 538-758 I625L): as above
Sequence of recombinant human tau isoform 1N4R (P10636 other isoform, or with tags, fused parts or gaps limits assumed): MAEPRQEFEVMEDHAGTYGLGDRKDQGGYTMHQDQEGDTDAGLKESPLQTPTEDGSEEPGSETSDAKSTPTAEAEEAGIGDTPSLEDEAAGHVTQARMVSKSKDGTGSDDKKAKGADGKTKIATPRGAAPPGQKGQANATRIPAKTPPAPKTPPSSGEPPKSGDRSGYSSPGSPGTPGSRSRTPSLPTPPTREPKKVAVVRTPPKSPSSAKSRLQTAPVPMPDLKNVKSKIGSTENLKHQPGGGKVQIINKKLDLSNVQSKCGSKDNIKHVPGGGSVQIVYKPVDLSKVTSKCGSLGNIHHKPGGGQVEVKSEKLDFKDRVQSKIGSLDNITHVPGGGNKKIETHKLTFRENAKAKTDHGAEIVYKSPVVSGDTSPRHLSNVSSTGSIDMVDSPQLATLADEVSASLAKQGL
Sequence of recombinant human tau isoform 1N3R (P10636 other isoform, or with tags, fused parts or gaps limits assumed): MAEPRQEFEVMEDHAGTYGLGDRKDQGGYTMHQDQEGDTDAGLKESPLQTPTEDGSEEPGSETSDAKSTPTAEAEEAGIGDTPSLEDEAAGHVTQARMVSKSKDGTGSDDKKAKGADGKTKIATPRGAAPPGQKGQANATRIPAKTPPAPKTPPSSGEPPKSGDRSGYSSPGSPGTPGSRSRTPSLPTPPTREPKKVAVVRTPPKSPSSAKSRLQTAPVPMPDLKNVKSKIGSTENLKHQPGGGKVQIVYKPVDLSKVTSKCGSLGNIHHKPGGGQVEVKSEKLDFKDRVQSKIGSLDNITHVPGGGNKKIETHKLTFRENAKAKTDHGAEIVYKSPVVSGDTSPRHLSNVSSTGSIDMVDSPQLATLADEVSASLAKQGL
T4 sequence (P10636 other isoform, or with tags, fused parts or gaps limits assumed): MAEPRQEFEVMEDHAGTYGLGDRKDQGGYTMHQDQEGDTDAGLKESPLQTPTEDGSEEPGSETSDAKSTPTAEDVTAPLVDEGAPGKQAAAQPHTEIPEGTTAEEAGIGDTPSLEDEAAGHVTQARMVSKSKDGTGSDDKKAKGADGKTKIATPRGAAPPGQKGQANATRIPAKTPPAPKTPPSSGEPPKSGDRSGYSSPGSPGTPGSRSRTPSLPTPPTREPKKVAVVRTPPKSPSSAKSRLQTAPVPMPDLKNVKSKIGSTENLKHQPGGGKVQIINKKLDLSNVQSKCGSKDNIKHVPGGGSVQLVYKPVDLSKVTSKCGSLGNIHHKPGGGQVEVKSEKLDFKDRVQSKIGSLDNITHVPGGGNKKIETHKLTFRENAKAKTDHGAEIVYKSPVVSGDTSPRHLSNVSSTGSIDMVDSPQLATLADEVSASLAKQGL
Sequence of phosphorylated tau 2N4R point mutant Thr217Ala (P10636 other isoform, or with tags, fused parts or gaps T217A T217A limits assumed): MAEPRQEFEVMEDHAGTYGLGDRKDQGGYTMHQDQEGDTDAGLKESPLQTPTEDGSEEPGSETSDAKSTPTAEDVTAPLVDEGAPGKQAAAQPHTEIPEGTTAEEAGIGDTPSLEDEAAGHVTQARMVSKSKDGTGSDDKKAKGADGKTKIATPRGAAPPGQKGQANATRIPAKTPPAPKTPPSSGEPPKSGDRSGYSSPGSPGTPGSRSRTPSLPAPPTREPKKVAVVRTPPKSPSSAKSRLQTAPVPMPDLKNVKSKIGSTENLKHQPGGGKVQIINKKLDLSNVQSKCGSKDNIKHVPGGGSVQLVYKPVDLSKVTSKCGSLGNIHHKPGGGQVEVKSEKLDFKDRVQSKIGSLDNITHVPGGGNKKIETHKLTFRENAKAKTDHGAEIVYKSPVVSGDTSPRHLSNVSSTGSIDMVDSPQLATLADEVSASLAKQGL
T3 sequence (P10636 other isoform, or with tags, fused parts or gaps): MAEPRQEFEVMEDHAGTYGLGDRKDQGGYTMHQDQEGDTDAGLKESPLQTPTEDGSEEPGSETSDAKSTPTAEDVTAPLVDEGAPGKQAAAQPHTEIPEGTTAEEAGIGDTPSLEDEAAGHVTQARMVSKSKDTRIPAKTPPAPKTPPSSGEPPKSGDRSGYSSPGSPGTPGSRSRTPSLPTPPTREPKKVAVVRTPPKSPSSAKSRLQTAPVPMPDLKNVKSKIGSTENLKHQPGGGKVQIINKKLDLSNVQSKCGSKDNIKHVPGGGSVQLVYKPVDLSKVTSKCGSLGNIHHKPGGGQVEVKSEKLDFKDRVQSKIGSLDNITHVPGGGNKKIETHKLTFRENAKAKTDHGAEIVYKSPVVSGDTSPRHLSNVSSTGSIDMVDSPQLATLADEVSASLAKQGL
Sequence of tau151-391 (P10636 468-708 I625L): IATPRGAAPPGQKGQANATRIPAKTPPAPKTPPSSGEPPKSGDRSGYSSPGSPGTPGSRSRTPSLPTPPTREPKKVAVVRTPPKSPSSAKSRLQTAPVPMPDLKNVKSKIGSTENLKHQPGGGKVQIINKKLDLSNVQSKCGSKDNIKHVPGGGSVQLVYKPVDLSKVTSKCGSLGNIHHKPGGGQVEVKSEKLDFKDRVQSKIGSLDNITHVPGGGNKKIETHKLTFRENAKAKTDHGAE

Binder: B1
- binding result [1]: no binding

Binder: B2
- binding result [2]: no binding

Binder: B3
- binding result [1]: no binding

Binder: B4
- binding result (tau 1-242): binds
- binding result (tau 221-441): no binding
- binding result (tau 2N4R(A134-168)): no binding
- binding result (tau 1-136): no binding
- binding result [3]: binds
- binding result [4]: binds
- binding result [5]: binds
- binding result (tau 31-441): binds
- binding result [6]: binds
- binding result [7]: binds
- binding result [8]: binds
- binding result (tau 99-441): binds
- binding result (tau 1-226): binds
- binding result [9]: binds
- binding result (tau 127-441): binds
- binding result [10]: binds
- binding result (tau151-391): binds

Binder: B5
- binding result [11]: no binding
- binding result [12]: no binding

Binder: B6
- binding result [13]: binds

Binder: B7
- binding result [2]: no binding

Binder: B8
- binding result [2]: no binding

Binder: B9
- binding result [1]: no binding
